According to paper PMC7802950, “Characteristics and expression patterns of six α-galactosidases in cucumber (Cucumis sativus L.)” (PLoS ONE, 2021):

Experiments:
Settings in all cases: pH and temperature of Km assay not stated
[1] = test system: O=[N+]([O-])c1ccc(O[C@H]2O[C@H](CO)[C@H](O)[C@H](O)[C@H]2O)cc1; experiment: purified protein
[2] = test system: T1, OC[C@H]1O[C@H](OC[C@H]2O[C@H](OC[C@H]3O[C@H](O[C@]4(CO)O[C@H](CO)[C@@H](O)[C@@H]4O)[C@H](O)[C@@H](O)[C@@H]3O)[C@H](O)[C@@H](O)[C@H]2O)[C@H](O)[C@@H](O)[C@H]1O; experiment: Lineweaver-Burk plot, hydrolysis; type: biochemical, Cucumis sativus
T1 construct: coding region in pAcHLT, baculovirus/Sf9 insect cells; 6xHis tag removed by thrombin

[3] = test system: T2, OC[C@H]1O[C@H](OC[C@H]2O[C@H](O[C@]3(CO)O[C@H](CO)[C@@H](O)[C@@H]3O)[C@H](O)[C@@H](O)[C@@H]2O)[C@H](O)[C@@H](O)[C@H]1O; experiment: Lineweaver-Burk plot, hydrolysis; type: biochemical, Cucumis sativus
T2 construct: coding region in pAcHLT, baculovirus/Sf9 insect cells; 6xHis tag removed by thrombin

CsGAL1 (Cucumis sativus), sequence (chain, as listed by the source): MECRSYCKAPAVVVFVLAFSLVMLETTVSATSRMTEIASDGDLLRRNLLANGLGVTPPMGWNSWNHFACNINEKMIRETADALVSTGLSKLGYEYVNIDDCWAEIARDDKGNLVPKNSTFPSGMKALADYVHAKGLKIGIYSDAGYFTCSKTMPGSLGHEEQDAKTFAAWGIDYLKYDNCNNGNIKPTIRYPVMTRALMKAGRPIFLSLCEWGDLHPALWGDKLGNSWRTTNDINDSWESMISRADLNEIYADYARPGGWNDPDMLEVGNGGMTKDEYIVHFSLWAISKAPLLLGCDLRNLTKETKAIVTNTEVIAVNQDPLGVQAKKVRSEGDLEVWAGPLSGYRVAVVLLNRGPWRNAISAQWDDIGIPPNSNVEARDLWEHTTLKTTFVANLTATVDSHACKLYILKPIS
CsGAL2 (Cucumis sativus), sequence (chain, as listed by the source): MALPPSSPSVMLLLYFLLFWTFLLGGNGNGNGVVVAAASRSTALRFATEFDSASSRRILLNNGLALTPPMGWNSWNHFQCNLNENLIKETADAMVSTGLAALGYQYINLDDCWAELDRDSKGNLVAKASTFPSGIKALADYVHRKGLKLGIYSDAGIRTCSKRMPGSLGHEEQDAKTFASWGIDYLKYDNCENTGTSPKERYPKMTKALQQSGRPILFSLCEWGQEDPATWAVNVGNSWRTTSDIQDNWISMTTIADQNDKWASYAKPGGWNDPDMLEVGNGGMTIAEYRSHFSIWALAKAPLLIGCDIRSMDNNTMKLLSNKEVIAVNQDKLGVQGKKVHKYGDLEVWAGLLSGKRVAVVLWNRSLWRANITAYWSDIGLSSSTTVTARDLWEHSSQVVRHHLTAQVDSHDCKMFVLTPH
CsGAL3 (Cucumis sativus), sequence (chain, as listed by the source): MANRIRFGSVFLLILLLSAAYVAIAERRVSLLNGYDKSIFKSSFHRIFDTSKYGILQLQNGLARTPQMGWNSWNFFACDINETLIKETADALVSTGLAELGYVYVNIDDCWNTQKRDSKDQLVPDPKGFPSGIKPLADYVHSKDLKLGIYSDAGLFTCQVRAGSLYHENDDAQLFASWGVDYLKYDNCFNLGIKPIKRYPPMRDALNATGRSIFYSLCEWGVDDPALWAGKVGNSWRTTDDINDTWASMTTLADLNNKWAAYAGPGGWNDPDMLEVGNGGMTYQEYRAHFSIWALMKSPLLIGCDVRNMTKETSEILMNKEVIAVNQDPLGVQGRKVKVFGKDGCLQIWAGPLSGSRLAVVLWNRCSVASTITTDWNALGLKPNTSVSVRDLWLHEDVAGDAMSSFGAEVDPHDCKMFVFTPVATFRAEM

Substance	Km [1] [mM]	Km [2] [mM]	Km [3] [mM]
CsGAL1 (Cucumis sativus)	0.89 ± 0.12	12.3 ± 1.92	4.71 ± 0.85
CsGAL2 (Cucumis sativus)	1.35 ± 0.23	11.85 ± 2.05	5.63 ± 0.67
CsGAL3 (Cucumis sativus)	0.99 ± 0.10	18.92 ± 2.56	3.24 ± 0.70
